{"source": "patent US20190002567A1", "about": "(LABORATOIRE FRANCAIS DU FRACTIONNEMENT ET DES …, published 2019)", "binders": {"B1": {"name": "chimeric antibody 122A2 (antibody, human IgG1, kappa)", "heavy": "not shown", "light": "DIQMTQTTSSLSASLGDRVTISCRASQDISNYLNWYQQKPDGTVKLLIYYTSRLHSGVPSRFSGSGSGTDYSLTISNLDQEDIATYFCQQGNTLPWTFGGGTKLEIKRTVAAPSVFIFPPSDEQLKSGTASVVCLLNNFYPREAKVQWKVDNALQSGNSQESVTEQDSKDSTYSLSSTLTLSKADYEKHKVYACEVTHQGLSSPVTKSFNRGEC", "notes": "Family 1; also called Ch; 122A2 mAb; Ch122A2 mAb"}, "B2": {"name": "chimeric antibody 104E10 (antibody, human IgG1, kappa)", "heavy": "not shown", "light": "QIVLTQSPAIMSASPGEKVTMTCSASSSVIYMHWFQQKPGTSPKLWIYSTSNLASGVPARFSGSGSGTSYSLTISRMEAEDAATYYCQQRRSYPYTFGGGTKLEIKRTVAAPSVFIFPPSDEQLKSGTASVVCLLNNFYPREAKVQWKVDNALQSGNSQESVTEQDSKDSTYSLSSTLTLSKADYEKHKVYACEVTHQGLSSPVTKSFNRGEC", "notes": "Family 2"}, "B3": {"name": "chimeric antibody 102E9 (antibody, human IgG1, kappa)", "heavy": "not shown", "light": "B2 light with M21I, M32I, N52Y, Y95F", "notes": "Family 2; the text gives the same values for 102E9"}, "B4": {"name": "chimeric antibody 114D11 (antibody, human IgG1, kappa)", "heavy": "not shown", "light": "B2 light with M21I, I30F", "notes": "Family 2"}, "B5": {"name": "chimeric antibody 104C12 (antibody, human IgG1, kappa)", "heavy": "not shown", "light": "DLQMTQTPSSLSASLGDRVTISCRASQDINNYLSWYQEKPDGTFKLLIYYTSRLHSGVPSRFSGSGSGTDYSLTVRNLEQEDIGTYFCQQGKTLPWTFGGGTKLEIRRTVAAPSVFIFPPSDEQLKSGTASVVCLLNNFYPREAKVQWKVDNALQSGNSQESVTEQDSKDSTYSLSSTLTLSKADYEKHKVYACEVTHQGLSSPVTKSFNRGEC", "notes": "Family 1"}}, "note": "Positions count from the first letter of the chain named."}
{"target": "T1, human CD303 antigen (C-type lectin domain family 4 member C) (human, UniProt Q8WTT0 1-213)", "T1 sequence": "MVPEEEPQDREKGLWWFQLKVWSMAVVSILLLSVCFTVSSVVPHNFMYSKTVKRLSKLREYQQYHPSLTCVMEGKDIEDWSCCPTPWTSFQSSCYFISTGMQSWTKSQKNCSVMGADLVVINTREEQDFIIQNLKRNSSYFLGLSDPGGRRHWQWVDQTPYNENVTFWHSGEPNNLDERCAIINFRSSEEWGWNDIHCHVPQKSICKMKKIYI", "assay": "cell-based or functional assay", "units": {"ADCC EC50 (ng/mL) on Fc Gamma chain-CD303 Jurkat target cells": "ng/mL", "ADCC Emax (% lysis) on Fc Gamma chain-CD303 Jurkat target cells": "% lysis"}}
{"binder": "B1", "ADCC EC50 (ng/mL) on Fc Gamma chain-CD303 Jurkat target cells": 0.159, "ADCC Emax (% lysis) on Fc Gamma chain-CD303 Jurkat target cells": 42.4}
{"binder": "B2", "ADCC EC50 (ng/mL) on Fc Gamma chain-CD303 Jurkat target cells": 8.28, "ADCC Emax (% lysis) on Fc Gamma chain-CD303 Jurkat target cells": 40.5}
{"binder": "B3", "ADCC EC50 (ng/mL) on Fc Gamma chain-CD303 Jurkat target cells": 3.42, "ADCC Emax (% lysis) on Fc Gamma chain-CD303 Jurkat target cells": 38.9}
{"binder": "B4", "ADCC EC50 (ng/mL) on Fc Gamma chain-CD303 Jurkat target cells": 3.61, "ADCC Emax (% lysis) on Fc Gamma chain-CD303 Jurkat target cells": 37.4}
{"binder": "B5", "ADCC EC50 (ng/mL) on Fc Gamma chain-CD303 Jurkat target cells": 0.214, "ADCC Emax (% lysis) on Fc Gamma chain-CD303 Jurkat target cells": 41.8}
{"target": "T2, FcγRIIIa (CD16a) (UniProt P08637 17-254, limits assumed)", "T2 construct": "whole, on cells; also called FcvRIIIa", "T2 sequence (P08637 17-254 limits assumed)": "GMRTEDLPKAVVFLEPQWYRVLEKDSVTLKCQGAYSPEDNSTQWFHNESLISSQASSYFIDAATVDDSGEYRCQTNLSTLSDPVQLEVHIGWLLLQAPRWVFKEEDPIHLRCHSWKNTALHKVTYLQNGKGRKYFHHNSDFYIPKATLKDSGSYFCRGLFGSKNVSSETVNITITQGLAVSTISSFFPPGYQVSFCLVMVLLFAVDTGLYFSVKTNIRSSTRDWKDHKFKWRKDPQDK", "assay": "competition with 3G8-PE for CD16 on NK cells, flow cytometry", "protocol": "After washing, the binding of 3G8-PE to CD16 expressed by the NK cells was evaluated by flow cytometry. Mean fluorescence intensity (MFI) values are expressed as a percentage, 100% being the value obtained with the 3G8-PE antibody alone, and 0% the value obtained in the absence of 3G8-PE.", "units": {"IC50": "µg/mL"}}
{"binder": "B1", "IC50": 40.4}
{"binder": "B2", "IC50": 18.1}
{"binder": "B3", "IC50": 37}
{"binder": "B4", "IC50": 45}
{"binder": "B5", "IC50": 26.8}
